This passage reports binding result and percent inhibition results from US20100135948A1 (University of Pennsylvania, published 2010).

Where no end group is shown, it is not given here.

For assay [1], the target named is T1, desmoglein 3 (human, UniProt P32926 50-615, limits assumed).
T1 construct: Antigen on commercial ELISA plates; also called Dsg3; Dsg 3
T1 sequence (looked up): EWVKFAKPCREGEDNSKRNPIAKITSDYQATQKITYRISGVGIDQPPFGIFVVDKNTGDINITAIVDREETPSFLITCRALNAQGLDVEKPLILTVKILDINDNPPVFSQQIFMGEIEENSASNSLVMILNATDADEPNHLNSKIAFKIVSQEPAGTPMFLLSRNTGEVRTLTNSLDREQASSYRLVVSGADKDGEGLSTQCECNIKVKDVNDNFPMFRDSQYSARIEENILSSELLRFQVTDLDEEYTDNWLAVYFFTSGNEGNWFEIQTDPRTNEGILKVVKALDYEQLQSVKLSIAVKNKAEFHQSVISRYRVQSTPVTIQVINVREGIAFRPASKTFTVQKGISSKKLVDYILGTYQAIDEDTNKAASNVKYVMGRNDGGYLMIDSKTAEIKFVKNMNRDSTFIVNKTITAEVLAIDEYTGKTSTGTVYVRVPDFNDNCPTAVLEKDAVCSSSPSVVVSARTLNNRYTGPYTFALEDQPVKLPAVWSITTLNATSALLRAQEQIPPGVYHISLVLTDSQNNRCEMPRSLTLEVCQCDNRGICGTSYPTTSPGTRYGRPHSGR
Put plainly: ELISA.

Assay [2] deals with T2, (D3)3c/9 scFv.
T2 construct: also called pathogenic PV mAb
Put plainly: ELISA inhibition, monoclonal peptide phage preincubated with PV scFv, Dsg plate (Dsg3 by paragraph 281). As for the experimental part:
(§1) For ELISA inhibition assays, anti-idiotypic reagents were pre-incubated with PV mAbs for one hour at 37° C. prior to incubation on Dsg3 or Dsg1 ELISA plates (Rhigene/MBL), which were otherwise processed according to manufacturer's instructions. Anti-idiotypic antisera were effective and dose responsive at dilutions ranging from 1:3 to 1:6400, while peptide phage were used in inhibition assays from 10⁸ to 10¹⁰ pfu/well. PV scFv binding, detected with HRP-conjugated anti-HA secondary antibody (Roche), was titrated to a final OD450 reading of 0.4-1.0, which was within the linear range of detection.
(§2) Select peptide phage were tested for their ability to inhibit binding of PV mAbs to Dsg substrates by ELISA (Table 4).

Assay [3] concerns the target T3, (D31)12b/6 scFv.
T3 construct: also called nonpathogenic PV mAb
The description is as above. As to the method:
as §1, §2

Assay [4] deals with T4, (D31)2/29 scFv.
T4 construct: also called pathogenic PV mAb
The assay is described as above. As to the method: as §1, §2

Assay [5] concerns the target T5, (D31)2/28 scFv.
T5 construct: Human anti-Dsg3/Dsg1 scFv from the PV(1) phage library (pComb3X, nickel-purified, HA-detected); also called pathogenic PV mAb
The description is as above. As to the method:
as §1, §2

The target in assay [6] is T6, (D3)1d/2c scFv.
T6 construct: also called nonpathogenic PV mAb
The description is as above. As to the method: as §1, §2

B1: P10 peptide phage (peptide, not shown: large carriers)
peptide: QHNKSPNLYWRS
modifications: also: displayed on phage, fused to pIII
notes: Monoclonal phage clone; tested as phage particle
As for B1, in assay [1], the binding result is “no binding”.

B2: P4 peptide phage (peptide, not shown: large carriers)
peptide: ANKTSPFLMWRL
modifications: also: displayed on phage, fused to pIII
notes: Monoclonal phage clone from round 3 of screening with (D31)2/29 IgG; tested as phage particle
Take B2: the percent inhibition in assay [2] is 7%; in assay [3], 10%; in assay [4], 78%; in assay [5], 9%; in assay [6] it was 14%. Besides, in assay [1], the binding result was “no binding”.

B3: P8 peptide phage (peptide, not shown: large carriers)
peptide: TDKTPFLLWRVH
modifications: also: displayed on phage, fused to pIII coat protein, linker not given here
notes: as for B1
Consider B3, for which the binding result in assay [1] is “no binding”.

B4: P7 peptide phage (peptide, not shown: large carriers)
peptide: YSNKTPHLQWRL
modifications: also: displayed on phage, fused to pIII coat protein, linker not given here
notes: as for B1
On to B4, for which the percent inhibition in assay [2] turned out to be 6%; in assay [3], 8%; in assay [4], 83%; in assay [5] it was 12%; in assay [6] it was 9%. The binding result in assay [1] is on record as “no binding”.

B5: control peptide phage displaying a non-consensus sequence (peptide, not shown: large carriers)
peptide: DLNYFTLSSKRE
modifications: also: displayed on phage, fused to pIII coat protein, linker not given here
notes: Control phage clone; tested as phage particle; also called control phage
For B5, the percent inhibition came to 8% in assay [2]; 11% in assay [3]; 15% in assay [4]; 2% in assay [5]; 8% in assay [6].

B6: P9 peptide phage (peptide, not shown: large carriers)
peptide: AKNPPTLIWKHT
modifications: also: displayed on phage, fused to pIII coat protein, linker not given here
notes: as for B1
Take B6: the binding result in assay [1] is given as “no binding”.

B7: P14 peptide phage (peptide, not shown: large carriers)
peptide: TTLTLRH
modifications: also: displayed on phage, fused to pIII
notes: as for B1
Take B7: the percent inhibition is 5% in assay [2]; 13% in assay [3]; 16% in assay [4]; 15% in assay [5]; 8% in assay [6]. The binding result in assay [1] is reported as “no binding”.

B8: P5 peptide phage (peptide, not shown: large carriers)
peptide: WANKQPTIIWRS
modifications: also: displayed on phage, fused to pIII coat protein, linker not given here
notes: as for B1
With B8, the binding result in assay [1] is on record as “no binding”.
